{
  "source": "paper PMC5095703",
  "about": "(Biochemistry, 2016)",
  "key": {"FdhC-C-term tag": {"target": "FdhC-C-term tag (Acinetobacter nosocomialis, UniProt V5RDR9)", "experiment": "X-ray crystal structure, […] Å", "type": "binding", "details": "ternary complex with dTDP-Fuc3N(R3Hb) (also with dTDP-Qui3N(R3Hb)), pH 5.0"}, "[1]": {"tested_on": "CC(=O)SCCNC(=O)CCNC(=O)[C@H](O)C(C)(C)COP(=O)(O)OP(=O)(O)OC[C@H]1O[C@@H](n2cnc3c(N)ncnc32)[C@H](O)[C@@H]1OP(=O)(O)O", "experiment": "purified protein", "details": "5 mM dTDP-Fuc3N, 50 mM HEPES pH 7.5, 5 mM DTNB"}, "[2]": {"tested_on": "Cc1cn([C@H]2C[C@H](O)[C@@H](COP(=O)(O)OP(=O)(O)O[C@H]3O[C@H](C)[C@@H](O)[C@H](N)[C@H]3O)O2)c(=O)[nH]c1=O", "experiment": "purified protein", "details": "1 mM 3-hydroxybutanoyl-CoA, 50 mM HEPES pH 7.5, 5 mM DTNB"}, "[3]": {"tested_on": "Cc1cn([C@H]2C[C@H](O)[C@@H](COP(=O)(O)OP(=O)(O)O[C@H]3O[C@H](C)[C@H](O)[C@H](N)[C@H]3O)O2)c(=O)[nH]c1=O", "experiment": "purified protein", "details": "1 mM 3-hydroxybutanoyl-CoA, 50 mM HEPES pH 7.5, 5 mM DTNB"}},
  "data": [
    {"molecule": "CC(C)(COP(=O)(O)OP(=O)(O)OC[C@H]1O[C@@H](n2cnc3c(N)ncnc32)[C@H](O)[C@@H]1OP(=O)(O)O)[C@@H](O)C(=O)NCCC(=O)NCCS", "note": "[CoA]", "values": [
      {"measurement": "X-ray crystal structure, 1.8 Å", "setting": "FdhC-C-term tag", "result": "the observed electron density for the CoA and the dTDP-Fuc3N(R3Hb) ligands"}
    ]},
    {"molecule": "FdhC (Acinetobacter nosocomialis)", "values": [
      {"measurement": "Km", "setting": "[1]", "result": "40 ± 10", "unit": "µM"},
      {"measurement": "kcat", "setting": "[1]", "result": "0.0034 ± 0.0002", "unit": "s⁻¹"},
      {"measurement": "kcat/Km", "setting": "[1]", "result": 85, "unit": "M⁻¹ s⁻¹"},
      {"measurement": "Km", "setting": "[2]", "result": "5300 ± 800", "unit": "µM"},
      {"measurement": "kcat", "setting": "[2]", "result": "24.7 ± 1.7", "unit": "s⁻¹"},
      {"measurement": "kcat/Km", "setting": "[2]", "result": 4700, "unit": "M⁻¹ s⁻¹"},
      {"measurement": "Km", "setting": "[3]", "result": "650 ± 70", "unit": "µM"},
      {"measurement": "kcat", "setting": "[3]", "result": "52.7 ± 2.1", "unit": "s⁻¹"},
      {"measurement": "kcat/Km", "setting": "[3]", "result": 81000, "unit": "M⁻¹ s⁻¹"}
    ]},
    {"molecule": "FdhC-C-term tag (Acinetobacter nosocomialis)", "values": [
      {"measurement": "Km", "setting": "[3]", "result": "1500 ± 200", "unit": "µM"},
      {"measurement": "kcat", "setting": "[3]", "result": "38.3 ± 1.9", "unit": "s⁻¹"},
      {"measurement": "kcat/Km", "setting": "[3]", "result": 26000, "unit": "M⁻¹ s⁻¹"}
    ]}
  ]
}
